Molecular target: His-tagged SARS-CoV-2 RBD (SARS-CoV-2 Wuhan-Hu-1, UniProt P0DTC2)
Assay: BLI

B1: Fab fragment of THSC20.HVTR26 (Fab, V domains shown)
VH: EVQLVESGGGLVQPGGSLRLSCAASGFTVSSNYMSWVRQAPGKGLEWVSAIYSGDSTYYADSVKGRFTISRHNPKNTLYLQMNSLRAEDTAVYYCARLVGALTNIVVSGDGGAFDIWGQGTMVTVSS
VL: SYELTQPASVSGSPGQSITISCTGTSSDVGSYNLVSWYQQHPGKAPKLMIYEVSKRPSGVSNRFSGSKSGNTASLTISGLQAEDEVDYYCCSYAGSSTWVFGGGTKLTVL
- binding result: binds

— article doi:10.1101/2022.12.03.518949 (bioRxiv, 2022)
